Measurements taken from the supplement of paper PMC7125110.
± gives the standard error. For some of these results: This sample holds only a part of the variants without activity.

B1: glmS ribozyme (parent)
chain: AUAAAAGCGCCAGAACUACAGAAAUGUAGUUGACGAGGAGGAGGUUUAUCGAAUUUUCGGCGGAUGCCUCCAAA

Tests used:
Details in all cases: with glucosamine-6-phosphate
[1] = variants of: B1; assay: kcat; higher = faster cleavage; RNA array
Outline: (§1)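 kcat and KM were obtained from weighted Michaelis–Menten fits across concentrations of kobs values. Those came from one- or two-exponential decay fits to per-tile medians normalised to baseline and to non-cleaving reference variants. The variants were barcoded ribozymes transcribed in situ by E. coli RNA polymerase on sequenced MiSeq chips and tracked through a hybridised Cy3 probe at 37 °C, with 40 μM to 10 mM glucosamine-6-phosphate in HEPES/KCl/Mg(OAc)2 buffer flowed in.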

[2] = variants of: B1; assay: self-cleavage kobs at 640 uM GlcN6P; higher = faster cleavage; RNA array
Outline: as §1

[3] = variants of: B1; assay: KM; higher = weaker cofactor use; RNA array
Outline: as §1

[4] = variants of: B1; assay: self-cleavage kobs at 2500 uM GlcN6P; higher = faster cleavage; RNA array
Outline: as §1

[5] = variants of: B1; assay: self-cleavage kobs at 10000 uM GlcN6P; higher = faster cleavage; RNA array
Outline: as §1

[6] = variants of: B1; assay: self-cleavage kobs at 40 uM GlcN6P; higher = faster cleavage; RNA array
Outline: as §1

[7] = variants of: B1; assay: self-cleavage kobs at 160 uM GlcN6P; higher = faster cleavage; RNA array
Outline: as §1

Variant | kcat [1] [s⁻¹] | self-cleavage kobs at 640 uM GlcN6P [2] [s⁻¹] | KM [3] [µM] | self-cleavage kobs at 2500 uM GlcN6P [4] [s⁻¹] | self-cleavage kobs at 10000 uM GlcN6P [5] [s⁻¹] | self-cleavage kobs at 40 uM GlcN6P [6] [s⁻¹] | self-cleavage kobs at 160 uM GlcN6P [7] [s⁻¹]
C10A C71G | 3.78e-05 ± 1.3e-05 | 5.99e-05 ± 2e-05 | – | – | – | – | –
U56A A64U | 5.11e-05 ± 2e-06 | – | 1250 ± 250 | 3.54e-05 ± 1.6e-05 | 4.52e-05 ± 1e-05 | – | –
A14G G37C A48G | 1.62e-05 ± 5.8e-06 | – | – | – | – | – | –
U56G C70U | 0.00109 ± 0.00036 | 0.000908 ± 0.00022 | – | 0.000943 ± 0.0003 | 0.00182 ± 0.00036 | 0.000308 ± 4.6e-05 | 0.000437 ± 7.8e-05
A12C C71G | 0.000645 ± 0.00023 | 0.000264 ± 3e-05 | – | 0.000424 ± 7.3e-05 | 0.00109 ± 0.00015 | 4.39e-05 ± 8.5e-06 | 0.000153 ± 2.4e-05
G37U U57C | < 1e-05 | – | – | < 1e-05 | < 1e-05 | – | –
U31G U56A | 0.00739 ± 0.00043 | 0.000903 ± 0.00017 | 4370 ± 320 | 0.00263 ± 0.0008 | 0.00519 ± 0.00083 | 6.8e-05 ± 9.6e-06 | 0.000307 ± 0.00014
U46A G62A | < 1e-05 | – | – | < 1e-05 | – | < 1e-05 | –
U47A C61A C70G C71U | 1.64e-05 ± 4.7e-06 | – | – | – | – | – | –
G7U A52G C70G | 3.01e-05 ± 9.2e-06 | – | – | – | – | – | –
G59U C67G | 1.65e-05 ± 6.4e-06 | – | – | – | – | – | –
G40U U49G | 8.53e-05 ± 3.1e-05 | – | – | 9.77e-05 ± 2e-05 | 6.94e-05 ± 1.1e-05 | – | –
G29C G32A | 0.00108 ± 0.00019 | 0.000251 ± 8.5e-05 | 1960 ± 740 | 0.000762 ± 0.00038 | 0.0009 ± 0.00015 | 3.72e-05 ± 1.5e-05 | –
U54G C61U | 2.79e-05 ± 5.8e-06 | – | – | 3.11e-05 ± 1.3e-05 | 2.39e-05 ± 1e-05 | – | –
A6C U47G | 1.58e-05 ± 2.8e-06 | – | – | – | – | – | –
C67U C70U | 0.000418 ± 1.7e-05 | 0.000132 ± 9.5e-06 | 1370 ± 110 | 0.000264 ± 2e-05 | 0.000377 ± 3e-05 | – | 4.68e-05 ± 6.2e-06
A6U A42G | 0.000505 ± 0.00011 | 8.54e-05 ± 1.6e-05 | 3730 ± 1400 | 0.000156 ± 5.1e-05 | 0.00038 ± 6e-05 | – | –
A14U C16G | 0.000881 ± 0.00019 | 0.000263 ± 3.3e-05 | 1840 ± 670 | 0.000429 ± 6.7e-05 | 0.000865 ± 0.00015 | – | 5.83e-05 ± 1.7e-05
U56G C68A | 2.79e-05 ± 2.6e-06 | – | – | 2.72e-05 ± 1.3e-05 | – | – | –

Variant | kcat [1] [s⁻¹] | self-cleavage kobs at 640 uM GlcN6P [2] [s⁻¹] | KM [3] [µM] | self-cleavage kobs at 2500 uM GlcN6P [4] [s⁻¹] | self-cleavage kobs at 10000 uM GlcN6P [5] [s⁻¹] | self-cleavage kobs at 40 uM GlcN6P [6] [s⁻¹] | self-cleavage kobs at 160 uM GlcN6P [7] [s⁻¹]
C10U A64G | 3.72e-05 ± 4.4e-06 | – | – | 3.75e-05 ± 5.1e-06 | 3.21e-05 ± 5.8e-06 | – | –
A15C G43A | < 1e-05 | < 1e-05 | – | – | – | < 1e-05 | < 1e-05
C16A G59A | 1.02e-05 ± 3.6e-06 | – | – | – | – | – | –
C10A A39G | < 1e-05 | < 1e-05 | – | – | – | – | < 1e-05
G37C C68G | 1.8e-05 ± 3.8e-06 | – | – | – | – | – | –
C50G G60C U69A | 8.12e-05 ± 2.6e-05 | 0.00011 ± 2.1e-05 | – | 0.000146 ± 3.1e-05 | 4.94e-05 ± 1.4e-05 | – | 0.00016 ± 4.5e-05
A48G C67G | 5.64e-05 ± 1.8e-05 | 3.36e-05 ± 1.6e-05 | – | 7.99e-05 ± 1.9e-05 | 4.41e-05 ± 1.4e-05 | – | < 1e-05
A15C G32C | 0.000182 ± 5.4e-06 | 3.08e-05 ± 1e-05 | 3300 ± 240 | 7.51e-05 ± 2e-05 | 0.000138 ± 1.7e-05 | – | –
C16G G32C | 0.000124 ± 1.6e-05 | – | 4550 ± 1400 | 4.67e-05 ± 9.8e-06 | 8.49e-05 ± 1e-05 | – | –
U56G C58A | 0.000993 ± 0.00023 | 7.48e-05 ± 1.1e-05 | 6930 ± 2300 | 0.000312 ± 3.6e-05 | 0.000556 ± 7.1e-05 | – | –
A14C G37A | 0.000437 ± 0.00013 | 8.51e-05 ± 1.4e-05 | – | 0.000201 ± 3e-05 | 0.000388 ± 6.8e-05 | – | 6.1e-05 ± 1.7e-05
G13U C58G | 0.000545 ± 0.00027 | 9.89e-05 ± 1.6e-05 | – | 0.000127 ± 2e-05 | 0.000381 ± 3.9e-05 | – | –
A6C A53G | 0.000117 ± 1e-05 | 3.04e-05 ± 1.3e-05 | 3110 ± 770 | 4.95e-05 ± 7.6e-06 | 8.97e-05 ± 7.3e-06 | – | –
C16U U65C | 0.000756 ± 0.00022 | 0.000152 ± 2.2e-05 | 2290 ± 1100 | 0.000332 ± 6.8e-05 | 0.000697 ± 0.00011 | – | 8.27e-05 ± 1.8e-05
G13A G40C | 5.83e-05 ± 8.4e-06 | – | 2940 ± 1100 | 2.55e-05 ± 7.4e-06 | 4.56e-05 ± 9.9e-06 | < 1e-05 | –
C11U C16U C71U | 0.000649 ± 0.00014 | 0.000215 ± 4.6e-05 | 1100 ± 540 | 0.000443 ± 0.00011 | 0.000614 ± 0.00012 | 4.58e-05 ± 1.8e-05 | –
U54A | 0.0591 ± 0.015 | 0.0124 ± 0.00049 | 2360 ± 680 | 0.03 ± 0.0018 | 0.0497 ± 0.0024 | 0.00106 ± 2e-05 | 0.00285 ± 0.00013
G32A C71U | 0.00395 ± 0.001 | 0.000487 ± 4.1e-05 | 4470 ± 1500 | 0.00122 ± 0.00011 | 0.00326 ± 0.00033 | 3.68e-05 ± 5.2e-06 | 0.000159 ± 1.6e-05
